The values that follow come from IntAct's records for PubMed 9355745.

B1: Tyrosine-protein phosphatase non-receptor type 1 (Homo sapiens), P18031 (parent)
chain: MEMEKEFEQIDKSGSWAAIYQDIRHEASDFPCRVAKLPKNKNRNRYRDVSPFDHSRIKLHQEDNDYINASLIKMEEAQRSYILTQGPLPNTCGHFWEMVWEQKSRGVVMLNRVMEKGSLKCAQYWPQKEEKEMIFEDTNLKLTLISEDIKSYYTVRQLELENLTTQETREILHFHYTTWPDFGVPESPASFLNFLFKVRESGSLSPEHGPVVVHCSAGIGRSGTFCLADTCLLLMDKRKDPSSVDIKKVLLEMRKFRMGLIQTADQLRFSYLAVIEGAKFIMGDSSVQDQWKELSHEDLEPPPEHIPPPPRPPKRILEPHNGKCREFFPNHQWVKEETQEDKDCPIKEEKGSPLNAAPYGIESMSQDTEVRSRVVGGSLRGAQAASPAKGEPSLPEKDEDHALSYWKPFLVNMCVATVLTAGAYLCYRFLFNSNT

The variants in the experiment derive from B1. To be noted: with pgfrb_human PDGFRB.
For MEMEKEFEQIDKSGSWAAIYQDIRHEASDFPCRVAKLPKNKNRNRYRDVSPFDHSRIKLHQEDNDYINASLIKMEEAQRSYILTQGPLPNTCGHFWEMVWEQKSRGVVMLNRVMEKGSLKCAQYWPQKEEKEMIFEDTNLKLTLISEDIKSYYTVRQLELENLTTQETREILHFHYTTWPDFGVPESPASFLNFLFKVRESGSLSPEHGPVVVHSSAGIGRSGTFCLADTCLLLMDKRKDPSSVDIKKVLLEMRKFRMGLIQTADQLRFSYLAVIEGAKFIMGDSSVQDQWKELSHEDLEPPPEHIPPPPRPPKRILEPHNGKCREFFPNHQWVKEETQEDKDCPIKEEKGSPLNAAPYGIESMSQDTEVRSRVVGGSLRGAQAASPAKGEPSLPEKDEDHALSYWKPFLVNMCVATVLTAGAYLCYRFLFNSNT [C215S], the “effect of a mutation on the interaction” value is given as “increasing interaction”.
